The values below come from patent US20260207757A1 (IGF ONCOLOGY, published 2026).

Experiment [1] has as its target T1, type 1 IGF receptor (IGF-1R) (human, UniProt P08069 31-1367).
T1 construct: whole, on cells; also called IGF-1 receptor; CD221
Kind of experiment: competition binding to IGF receptors against radioactive wild type IGF. As for the experimental part:
200 ul of each of these was mixed rapidly with 1.8 ml of refold buffer. Refold buffer was 1.4 M urea, 100 mM glycine, 0.5 M NaCl, 19% ethanol, 0.5 mM GSSG, 4 mM GSH, pH 9.5.

A further experiment addresses dihydrofolate reductase. Kind of experiment: cell-based or functional assay.

T1 sequence (P08069 31-1367): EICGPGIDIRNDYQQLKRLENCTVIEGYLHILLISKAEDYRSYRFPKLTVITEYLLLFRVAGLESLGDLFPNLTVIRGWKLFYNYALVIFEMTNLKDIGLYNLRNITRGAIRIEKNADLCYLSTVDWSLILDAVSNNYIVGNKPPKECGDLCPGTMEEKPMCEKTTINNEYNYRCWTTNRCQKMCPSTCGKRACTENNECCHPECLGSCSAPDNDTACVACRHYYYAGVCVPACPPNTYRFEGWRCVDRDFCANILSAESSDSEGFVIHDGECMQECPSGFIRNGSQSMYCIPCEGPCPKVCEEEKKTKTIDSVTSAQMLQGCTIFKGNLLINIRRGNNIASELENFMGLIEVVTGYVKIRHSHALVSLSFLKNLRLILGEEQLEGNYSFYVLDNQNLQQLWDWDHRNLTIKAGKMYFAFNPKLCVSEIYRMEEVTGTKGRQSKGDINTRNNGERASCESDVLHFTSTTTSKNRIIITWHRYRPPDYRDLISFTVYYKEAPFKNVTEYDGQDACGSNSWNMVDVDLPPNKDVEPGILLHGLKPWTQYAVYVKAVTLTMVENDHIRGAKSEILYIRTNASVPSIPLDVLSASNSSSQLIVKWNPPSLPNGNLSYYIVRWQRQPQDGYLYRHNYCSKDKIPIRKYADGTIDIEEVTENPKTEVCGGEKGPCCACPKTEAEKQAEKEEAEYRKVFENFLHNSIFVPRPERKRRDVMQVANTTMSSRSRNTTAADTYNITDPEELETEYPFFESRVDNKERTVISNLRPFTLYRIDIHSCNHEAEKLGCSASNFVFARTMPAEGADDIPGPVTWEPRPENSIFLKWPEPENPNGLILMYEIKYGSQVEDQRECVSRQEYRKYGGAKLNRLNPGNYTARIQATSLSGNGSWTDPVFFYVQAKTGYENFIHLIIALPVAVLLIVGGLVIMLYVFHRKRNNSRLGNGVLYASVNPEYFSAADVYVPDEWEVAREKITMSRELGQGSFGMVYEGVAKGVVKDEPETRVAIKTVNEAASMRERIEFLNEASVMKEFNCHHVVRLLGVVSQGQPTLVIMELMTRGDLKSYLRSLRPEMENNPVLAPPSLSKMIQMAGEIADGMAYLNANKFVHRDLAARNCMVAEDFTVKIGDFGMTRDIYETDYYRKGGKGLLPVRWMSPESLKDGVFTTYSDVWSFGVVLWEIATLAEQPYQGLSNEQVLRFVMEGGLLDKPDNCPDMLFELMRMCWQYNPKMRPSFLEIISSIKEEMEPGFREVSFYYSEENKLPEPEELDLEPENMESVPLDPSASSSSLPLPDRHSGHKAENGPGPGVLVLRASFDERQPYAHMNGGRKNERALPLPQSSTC

B1: 785IGF (ligand)
chain: MVKQIESKTAFQEALDAAGDKLVVVDFSATWCGHCKMIKPFFHSLSEKYSNVIFLEVDVDDSQDVASESEVKSMPTFQFFKKGQKVGEFSGANKEKLEATINELVGSKSGHHHHHHSAKGFVNQHLCGSHLVEALYLVCGDRGFYFNKPTGYGSSSRRAPQTGIVDECCFRSCDLRRLEMYCAPLKPAKSA
notes: also called mutTrx-IGF132
As a reminder, the Kd is the free concentration of one partner at which half of the binding sites on the other are occupied at equilibrium, for simple one-to-one binding. For B1, the Kd in experiment [1] was approximately 0.04 µM.

B2: 403IGF (ligand)
chain: MTSGHHHHHHSAGVNGFVNQHLCGSHLVEALYLVCGDRGFYFNKPTGYGSSSRRAPQTGIVDECCFRSCDLRRLEMYCAPLKPAKSA
notes: T0001 describes it as His6-IGF; also called His6-IGF
Regarding B2, in experiment [1], the Kd is approximately 0.002 µM.

B3: LR3IGF-MTX (ligand)
chain: MFPAMPLSSLFVNGPRTLCGALVDALQFVCGDRGFYFNKPTGYGSSSRRAPQTGIVDECCFRSCDLRRLEMYCAPLKPAKSEA
modifications: methotrexate on amino groups (3 lysine side chains and the N-terminal amino group available), MTX:protein ratio of 2.8
For B3, the “IC50 (inhibition of dihydrofolate reductase activity)” value with dihydrofolate reductase was found to be 99 nEq/L.

B4: 764IGF (ligand)
chain: MVKGKHHHHHHNGKGKSKFVNQHLCGSHLVEALYLVCGDRGFYFNKPTGYGSSSRRAPQTGIVDECCFRSCDLRRLEMYCAPLKPAKSA
notes: also called His6-K5-IGF132
With B4, the Kd in experiment [1] was approximately 0.1 µM.
